The record followed here is patent US20200399314A1 (MEDIKINE, published 2020).

Usually IC50 stands for the midpoint of a concentration-inhibition curve. A low value points to greater potency.

Bridge positions count the residues as written; N and C are the ends. Ends that are not written are not given here. Bounds are passed on as bounds.

T1: human IL-2Rα subunit (human, UniProt P01589 22-213, limits assumed)
T1 construct: also called CD25
T1 sequence (looked up): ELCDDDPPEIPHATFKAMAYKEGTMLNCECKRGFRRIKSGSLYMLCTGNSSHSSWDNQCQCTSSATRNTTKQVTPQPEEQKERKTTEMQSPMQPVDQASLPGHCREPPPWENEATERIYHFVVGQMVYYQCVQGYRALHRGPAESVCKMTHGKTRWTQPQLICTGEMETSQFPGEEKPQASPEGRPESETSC

B1: SEQ ID NO 304 (peptide)
peptide: LSVCSCPPGQLYCMVE
modifications: disulfide (positions not given here); also: disulfide between two of the three Cys, which not given here

This assay concerns the target T1, human IL-2Rα subunit.
Take EQFCLVSDPMACWSL (disulfide 4-12 (inferred)) [SEQ ID NO 50]: the IC50 is less than 100 µM.
Regarding KWICRLVPGNGACHSF [SEQ ID NO 95], the IC50 was less than 100 µM.
Consider SGCRLSLLDGHCYF [SEQ ID NO 78], for which the IC50 is less than 100 µM.
The molecule WVACSWDHGCRS (disulfide 4-10 (inferred)) [SEQ ID NO 43] showed a 50% inhibitory concentration (IC50) of less than 100 µM.
As for KYWCLRSEPDACFAT (disulfide 4-12 (inferred)) [SEQ ID NO 51], the concentration for half-maximal inhibition (IC50) was less than 100 µM.
For SWECVYMPGHQGCRLF [SEQ ID NO 101], the half-maximal inhibitory concentration (IC50) is less than 100 µM.
Molecule LRCRLDTRDGTCRF [SEQ ID NO 75] yielded an IC50 of less than 100 µM.
GFRCTYDPGTHSCWSI [SEQ ID NO 94] yielded a concentration for half-maximal inhibition (IC50) of less than 100 µM.
As for FLHWPVYFCQVM [SEQ ID NO 4], the 50% inhibitory concentration (IC50) was less than 100 µM.
The molecule VFCIGYGAAQSCHS [SEQ ID NO 82] came in with a half-inhibitory concentration (IC50) of less than 100 µM.
Then EWECLFMPGRRGCLLM (disulfide 4-13 (inferred)) [SEQ ID NO 111], with less than 100 µM; and DWECLFLPGRRGCTLF (disulfide 4-13 (inferred)) [SEQ ID NO 118], with less than 100 µM; and DWECLFLPGRRGCLLF [SEQ ID NO 110], with less than 100 µM.
For DWECIFLPGRRGCTLF (disulfide 4-13 (inferred)) [SEQ ID NO 114] the value was less than 100 µM; for WAYDWSCFRRRL [SEQ ID NO 3], less than 100 µM; for EWECWFLPGRRGCTLI [SEQ ID NO 116], less than 100 µM.
FIPWDEYFKQVL [SEQ ID NO 9] came in with an IC50 of less than 100 µM.
Molecule RWECIYIPGRKGCTLQ [SEQ ID NO 99] showed an IC50 of less than 100 µM.
Molecule FLPWPVYFSQVL [SEQ ID NO 5] returned a concentration for half-maximal inhibition (IC50) of less than 100 µM.
In turn, TKLCLKSEPQACWSM [SEQ ID NO 53] registered an IC50 of less than 100 µM.
Regarding YWECVFMPGHRGCSLI [SEQ ID NO 119], the IC50 is less than 100 µM.
In turn, VRFCRSGPGWVSCGTQ [SEQ ID NO 102] gave an IC50 of less than 100 µM.
Regarding FWECVYSPGSRGCRMV (disulfide 4-13 (inferred)) [SEQ ID NO 93], the IC50 was less than 100 µM.
Then VTQCFDGPGSFRCCYQ [SEQ ID NO 306], with less than 100 µM.
Consider RFICRIQPGREGCWSL [SEQ ID NO 98], for which the IC50 is less than 100 µM.
MRCILSPSREHCLF [SEQ ID NO 76] displayed an IC50 of less than 100 µM.
For RRFCLRSEPAACWFV [SEQ ID NO 67] the value was less than 100 µM; for NHCTMDWRLGACIF [SEQ ID NO 77], less than 100 µM; for SLNCKTRPGLRWCTWT [SEQ ID NO 100], less than 100 µM.
Then NWECIFSPGRRGCSLT [SEQ ID NO 109], with less than 100 µM; and FVEWQAYFSQMM [SEQ ID NO 6], with less than 100 µM; and DWHCLFLPGHRGCTLF (disulfide 4-13 (inferred)) [SEQ ID NO 117], with less than 100 µM.
Molecule TWDCLFLPGRRGCTLM [SEQ ID NO 120] registered a concentration for half-maximal inhibition (IC50) of less than 100 µM.
Then GSRCYWDPGREVCIFK [SEQ ID NO 91], with less than 100 µM; and FIPWDEYFAQLL [SEQ ID NO 8], with less than 100 µM; and RSCNRYGIWGHCDT [SEQ ID NO 72], with less than 100 µM.
For VRLCRVGPGYESCPAN [SEQ ID NO 103] the value was less than 100 µM.
For VRCLYDSITRTCTF [SEQ ID NO 83], the IC50 was less than 100 µM.
In turn, RQCNCLSPGELVNCQQ [SEQ ID NO 307] had an IC50 of less than 100 µM.
With WVICSALGCKAW [SEQ ID NO 36], the IC50 was less than 100 µM.
RVYCLASEPNSCWST [SEQ ID NO 52]: the IC50 was less than 100 µM.
In turn, EWECLFLPGRKGCTLF [SEQ ID NO 113] yielded an IC50 of less than 100 µM.
On to TRCTVIGPPWSCRF [SEQ ID NO 81], for which the IC50 was less than 100 µM.
The molecule VSCRFRPDLGFCIF [SEQ ID NO 85] registered an IC50 of less than 100 µM.
STWCCLHPGVGECQAV [SEQ ID NO 305]: the IC50 is less than 100 µM.
For KLFCLRSGDRACWVV (disulfide 4-12 (inferred)) [SEQ ID NO 60] the value was less than 100 µM; for VYECLFMPGRKGCFGM [SEQ ID NO 115], less than 100 µM.
In turn, SKCVYDYNFGTCIF [SEQ ID NO 79] displayed an IC50 of less than 100 µM.
For YVLCSNRNGCRP [SEQ ID NO 41] the value was less than 100 µM.
On to IRCRYEKQSGICLF [SEQ ID NO 74], for which the half-inhibitory concentration (IC50) is less than 100 µM.
HVICSVNGGCRG [SEQ ID NO 44]: the IC50 was less than 100 µM.
For SRCVMSLQLGACIF [SEQ ID NO 80] the value was less than 100 µM; for YVTCRWGYGCTR [SEQ ID NO 42], less than 100 µM; for VSCKIDRRSGSCLF (disulfide 3-12 (inferred)) [SEQ ID NO 84], less than 100 µM.
IKCRVLEAGTPCVF (disulfide 3-12 (inferred)) [SEQ ID NO 73] gave a 50% inhibitory concentration (IC50) of less than 100 µM.
For DRCDTRTWGYYCWI [SEQ ID NO 86] the value was less than 100 µM; for QWSCVFSPGVRGCKLV (disulfide 4-13 (inferred)) [SEQ ID NO 97], less than 100 µM.
B1 came in with an IC50 of less than 100 µM.
For AWECLFLPGHRGCSLF [SEQ ID NO 112] the value was less than 100 µM; for VRMCYVAPGYVSCPRM [SEQ ID NO 104], less than 100 µM; for PWVCEHYPGRRGCVLM (disulfide 4-13 (inferred)) [SEQ ID NO 96], less than 100 µM.
For EWECRFLPGRRGCSLF [SEQ ID NO 92] the value was less than 100 µM.
